Results as given in PMC8528422.

Target: FleQ, full length (FleQFL) (Pseudomonas aeruginosa) (UniProt G3XCV0)
Sequence (G3XCV0 whole entry): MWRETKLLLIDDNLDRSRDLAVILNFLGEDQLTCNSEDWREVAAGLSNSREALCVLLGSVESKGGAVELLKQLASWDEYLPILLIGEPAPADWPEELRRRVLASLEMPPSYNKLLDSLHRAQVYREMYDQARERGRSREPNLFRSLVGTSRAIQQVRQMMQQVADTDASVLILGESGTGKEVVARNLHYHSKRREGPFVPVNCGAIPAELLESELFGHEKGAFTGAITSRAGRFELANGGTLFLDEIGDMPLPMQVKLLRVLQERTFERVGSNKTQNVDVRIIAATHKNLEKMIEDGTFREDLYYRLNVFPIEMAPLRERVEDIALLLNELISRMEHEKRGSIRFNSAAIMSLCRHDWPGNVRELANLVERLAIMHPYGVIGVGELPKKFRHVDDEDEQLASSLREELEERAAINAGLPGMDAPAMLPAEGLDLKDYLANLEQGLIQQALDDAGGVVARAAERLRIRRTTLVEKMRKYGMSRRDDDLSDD

B1: C-terminal peptide of FleN comprising the last 25 amino acids (peptide)
peptide: PANPRGHLEFFVERLVQHPATGSAV
  ATPase activity of FleQ (1 μM) left with 100 μM C-terminal peptide of FleN: 66%
